The data set concerns O=C1CCCCC1. Kind of data set: purified protein. Particulars: table prints only 'substrate', cyclohexanone taken from the standard assay (Figure 2: 100 μM NADPH, 50 mM TrisHCl pH 8.5).

The Km is the concentration of substrate that gives half-maximal velocity.

As to “CHMOAcineto (CHMOwt) (Acinetobacter johnsonii)”, the Km turned out to be 6.7 ± 2.0 µM.

(Values after publication PMC9552169, “Mutations Increasing Cofactor Affinity, Improve Stability and Activity of a Baeyer–Villiger Monooxygenase” (ACS Catalysis, 2022).)
